Reference: US12637662B2, “Cells, islets, and organoids that evade immune detection and autoimmunity, methods of production and use thereof” (SALK INSTITUTE FOR BIOLOGICAL STUDIES, priority 2018, dated 2026)

Tested on: ERRγ (ESRRG), mitochondrial and insulin gene expression
Experiment: Quantitative RT-PCR gene expression in hiPSC-derived islet organoids/HILOs
Type: cell-based, human
Settings: hiPSC-derived islet organoids, MCS or HILOs
Experimental: hiPSCs were cultured in matrigel-coated plates. Single cell suspensions were prepared using Accutase, washed in PBS, and collected by centrifugation (1000-1300 rpm for 5 min). Cells were re-suspended with 3D Kelco Gel Stem TeSR™ Base Medium in the presence of the ROCK inhibitor (10 μM Y-27632, StemCell) for 5 to 7 days until spheroids reached 50-100 μm diameter. The medium was then replaced with 0.015% Kelco gel containing 0.3% methylcellulose and supplemented with 100 ng/ml human Activin A (R&D Systems), 3 μM CHIR99021 (Axon or Selleckchem) in differentiation medium (S1) for 1 day, and then 100 ng/ml human Activin in differentiation medium (S1) for another 2 days (Stage 1, Definitive Endoderm). Subsequently, the medium was replaced with differentiation medium (S2) with 50 ng/ml FGF7 (R&D Systems) for 2 days, differentiation medium (S3) with 50 ng/ml FGF7, 0.25 μM SANT-1 (Sigma), 1 μM Retinoic Acid (Sigma), 100 nM LDN193189, 10 μM Alk5 inhibitor II and 200 nM of the ß-Amyloid Precursor Protein modulator TPB for 3 days, then 50 ng/ml FGF7, 0.25 μM SANT-1 (Sigma), 1 μM Retinoic Acid (Sigma), 100 nM LDN193189, 10 μM Alk5 inhibitor II and 100 nM of the ß-Amyloid Precursor Protein modulator TPB for 2 days. Subsequently the medium was replaced with differentiation medium (S4) with 0.25 μM SANT-1, 50 nM retinoic acid, 100 nM LDN193189, 10 μM Alk5 inhibitor II, 1 μM T3 for 3 days. Subsequently, the medium was replaced with differentiation medium (S5) with 100 nM LDN193189, 100 nM […] inhibitor XX (GSiXX, Millipore), 10 μM Alk5 inhibitor IL, 1 μM T3 for 7 days. Subsequently, the medium was replaced with differentiation media (S5) with 10 μM Trolox (Calbiochem), 2 μM R428 (Selleckchem), 1 mM N-acetyl cysteine, 10 μM Alk5 inhibitor II, 1 μM T3 for an additional 7 to 20 days. […]
Total RNA was extracted using TRIzol reagent (Invitrogen) and RNeasy KIT (Qiagen). […] Real time quantitative RT-PCR (qPCR) was performed using SYBR Green (Bio-Rad).

B1: WNT4: recombinant human Wnt4 protein (R&D Systems), non-canonical WNT maturation factor (protein, UniProt P56705 23-351, looked up)
Protein Wnt-4: SNWLYLAKLSSVGSISEEETCEKLKGLIQRQVQMCKRNLEVMDSVRRGAQLAIEECQYQFRNRRWNCSTLDSLPVFGKVVTQGTREAAFVYAISSAGVAFAVTRACSSGELEKCGCDRTVHGVSPQGFQWSGCSDNIAYGVAFSQSFVDVRERSKGASSSRALMNLHNNEAGRKAILTHMRVECKCHGVSGSCEVKTCWRAVPPFRQVGHALKEKFDGATEVEPRRVGSSRALVPRNAQFKPHTDEDLVYLEPSPDFCEQDMRSGVLGTRGRTCNKTSKAIDGCELLCCGRGFHTAQVELAERCSCKFHWCCFVKCRQCQRLVELHTCR
B1 was tested, and the “expression of ERRγ (ESRRG) and mitochondrial genes” value was “dose-dependently increased” and the “expression of ERRγ (ESRRG) and mitochondrial genes” value (listed as rhWNT4) was “induced”.
